Test: yeast display, Sf9 membrane polyspecificity reagent, FACS + sequencing; frameworks hold sequencing errors
Summary of the method: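 A nanobody's polyreactivity label depends on the gate it was sorted from. Yeast display cells were stained with 10% biotinylated, detergent-solubilized Sf9 membrane reagent for 1 hour at 4 °C, enriched on streptavidin microbeads and sorted by FACS. The low and high (top ~1%) gates were set on anti-HA fluorescence for expression and streptavidin fluorescence for reagent binding.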

Sequence: QVQLVESGGGLVQAGGSLRLSCAASGSIITPYAMGWYRQAPGKERELVAAISGRGGSTYYADSVKGRFTISRDNAKNTVYLQMNSLKPEDTAVFFCAAKRSGGQGQGYGYWGQGTQVTVSS
- polyreactivity (PSR sort gate): high polyreactivity

Sequence: QVQLVESGGGLVQAGGSLRLSCAASGSIITVNAMGWYRQAPGKEREFVAGITSIGGRTYYADSVKGRFTISRDNAKNTDYLQMNSLKPEDTAVYDCNKRTYRARYDYWGQGTQVTVSS
- polyreactivity (PSR sort gate): high polyreactivity

Sequence: QVQLVESGGGLVQAGGSLRLSCAASGSIIWRNAMGWYSQAPGKERELVAAISYSGGSTYYADSVKGRFTISRDNAKNTVDLQMNSLKPEDTAVYYCAADYTEVLEYDYWGQGTQVTVSS
- polyreactivity (PSR sort gate): low polyreactivity

Sequence: QVQLVESGGGLVQAGGSLRLSCAASGSIIWYYAMGWYRQAPGKERELVAAISISGSTYYADSVKGRFTISRDNAKNTVYLQMNSLKPEDTAVYYCAARKFFWRSNYDYWGQGTQVTVSS
- polyreactivity (PSR sort gate): low polyreactivity

Sequence: QVQLVESGGGLVQAGGSLRLSCAASGSIIYNYAMGWYRQAPGKERELVAAINRSGGITYYADSVKGRFTISRDNAKNPVYLQMNSLKPEDTAVYYCAADRSFGHHYWYTGKRYDYWGQGTQVTVST
- polyreactivity (PSR sort gate): low polyreactivity

Sequence: QVQLVESGGGLVQAGGSLRLSCAASGSIIYTYAMGWYRQAPGKVRELVAAITGSDNTNYADSVKGRFTISRDNAKNTVYLQMNSLNPEDTAVYYCAADFPWSTKSWHPDSGDSWGQGTQVTVSS
- polyreactivity (PSR sort gate): low polyreactivity

Sequence: QVQLVESGGGLVQAGGSLRLSCAASGSILADYAMGWYRQGPGKERELVAGISSGGSTNYADSVKGRFTITGDNAKNTVSLQMNSLKPEDTAVYYCNADQDFLFIGYLFDYWGQGTQVTVSS
- polyreactivity (PSR sort gate): low polyreactivity

Sequence: QVQLVESGGGLVQAGGSLRLSCAASGSILALYTMGVYRQAPGKERELVASISSGGRTNYADSVKGRFTISRDNAKNTVYLQMNSLKPEDTAVYYCARSRLGRAYGRYDYWGQGTQVTVSS
- polyreactivity (PSR sort gate): low polyreactivity

Sequence: QVQLVESGGGLVQAGGSLRLSCAASGSILARYAMGWYRQAPGKERQLVAAISYNGCSTYYADSVKGRFTISRDNAKNTVYLQMNSLKPEDTAVYYCAKAYDTTLTYNYWGQGTQVTVSS
- polyreactivity (PSR sort gate): low polyreactivity

Sequence: QVQLVESGGGLVQAGGSLRLSCAASGSILDGYDMGRYRQAPGKERDLDAAISTNSDRTYYADSVKGRFTISRDNAKNTVYLQMNSLKPEDTAVYYCNARKRRRAGYPYDYWGQGTQVTVSS
- polyreactivity (PSR sort gate): high polyreactivity

Sequence: QVQLVESGGGLVQAGGSLRLSCAASGSILDIYAMGLYRQAPGKERELVAGISTSGGSTYYADSVMGRFTFSRDNAKITVYLQMNSLKPEDTAVYYCAKDYGYQGHTSTLYWAYLEYDFWGQVTQVTVSS
- polyreactivity (PSR sort gate): low polyreactivity

Sequence: QVQLVESGGGLVQAGGSLRLSCAASGSILDLNAMGWYRQAPGKERELVAAISYSGDSTYYADSVKGRFTISRDNAKNTVYLQMNSLKPEDTAVYYCAAEVYGAVFDYWGQGTQVTVSS
- polyreactivity (PSR sort gate): low polyreactivity

Sequence: QVQLVESGGGLVQAGGSLRLSCAASGSILDQNTMGWYRQAPGKERELVAAITGSGGITYYADSVKGRFTISRDNAKNTVYLQMNSLKPEDTAVYYCATRTWRAYRKYNYWGQGTQVTVSS
- polyreactivity (PSR sort gate): high polyreactivity

Sequence: QVQLVESGGGLVQAGGSLRLSCAASGSILDSNAMGWYRQAPGKERELVAAITSGGSTYYADSVKGRFTISRDNAKNTVYLQMNSLKPEETAVYYCAAAYLGYGAVQPSYEGGYWGQGTQVTVSS
- polyreactivity (PSR sort gate): low polyreactivity

Sequence: QVQLVESGGGLVQAGGSLRLSCAASGSILDSYAMGWDRQAPGKERELVAASTRSGVRTYYADSVKGRFTISRDNAKNTVYLQMNSLKPEDTAVYYCAARVTRYRDLNYWGQGTQVTVSS
- polyreactivity (PSR sort gate): high polyreactivity

Sequence: QVQLVESGGGLVQAGGSLRLSCAASGSILDYYVMGWYSQAPGKERELVAAIRGGGSTYYADSVKARFTISRDNAKNTVYLQMNSLKPEDTAVYYCAKDSQTARDFDYWGQGTQVTVSS
- polyreactivity (PSR sort gate): low polyreactivity

Sequence: QVQLVESGGGLVQAGGSLRLSCAASGSILFGNAMGWYRQAPGKERELVAAITVSGGSTYYADSVKGRFTISRDNAKNTVYLQMNSLKPEDTAVYYCAAGGWWHYRPQSYSGPFDYWGQGTQVTVSS
- polyreactivity (PSR sort gate): low polyreactivity

Sequence: QVQLVESGGGLVQAGGSLRLSCAASGSILFTNAMGWYRQAPGKERELVAAISSGGSTYYADSVKGRFTISRDNAKNTVYLQMNSLKPEDSAVYYCAADHLNVGREYVEYDYWGQGTQVTVSS
- polyreactivity (PSR sort gate): low polyreactivity

Sequence: QVQLVESGGGLVQAGGSLRLSCAASGSILFTNAMGWYRQAPGKERELVAAISSGGSTYYADSVKGRFTISRDNAKNTVYLQMNSLKPEDTAVYYCAADQLNVGREYVEYDFWGQGTQVTVSS
- polyreactivity (PSR sort gate): low polyreactivity

Sequence: QVQLVESGGGLVQAGGSLRLSCAASGSILGANAMGWYRQAPGKERELVAAISYRGGSTYYADSVKGRFTISRDNAKNTVYLQMNSLKPEDTAVYYCAAVVPTGYDYWGQGTQVTVSS
- polyreactivity (PSR sort gate): low polyreactivity

Sequence: QVQLVESGGGLVQAGGSLRLSCAASGSILGDNAMAWYRQAPGKERELVAAISYRGGSTYADSVKGRFTISRANAKNTVYLQMNSLKPEDTAVYYCNKTDIDDSQYREYEYWGQGTQVTVSS
- polyreactivity (PSR sort gate): low polyreactivity

Sequence: QVQLVESGGGLVQAGGSLRLSCAASGSILGDYGMGWYRQAPGKERELVAAITWNGDSTYYADSVKGRFTISRDNAKNTVYLQMNSLKPEDTAVYYCAADLQDYKYYPWYGYWGQGTQVTVSS
- polyreactivity (PSR sort gate): low polyreactivity

Sequence: QVQLVESGGGLVQAGGSLRLSCAASGSILGDYGMGWYRQAPGKEREVVAAITWNGDSTYYADSVKGRFTISRDNAKNTVYLQMNSLKPEDTAVYYCAADLQDYKYYPWYGYWGQGTQVTVSS
- polyreactivity (PSR sort gate): low polyreactivity

Sequence: QVQLVESGGGLVQAGGSLRLSCAASGSILGGNAMGWYRQAPGKERELVAAITFSGGGTYYADSVKGRFTISRDNAKNTVYLQMNRLKPEDTAVYYCNAFGPDYYHVYPAEDYWGQGTQVTVSS
- polyreactivity (PSR sort gate): low polyreactivity

Sequence: QVQLVESGGGLVQAGGSLRLSCAASGSILGGNSMGWYRQATGKERVLVAAITFSGGGTYYADSVKGRFTISRDNAKKTVYLQMNSLKPEDSAVYYCAADKDGYTYEFDYWGQGTQVTVSS
- polyreactivity (PSR sort gate): low polyreactivity

Sequence: QVQLVESGGGLVQAGGSLRLSCAASGSILGLYAMRWYRQATGKERELVASIPSSGSTYYAVSVKGRFTISRDYAKNTVYLQMYSLKPEDTAVYYCAAVGSYYYYIRYDYWGQGTQVTVSS
- polyreactivity (PSR sort gate): low polyreactivity

Sequence: QVQLVESGGGLVQAGGSLRLSCAASGSILGPNAMGWYRQAPGKERELVARISTSGGSTYYADSVKGRFTISRDNAKNTVYLQMNSLKPEDTAVYYCATGLVWWRSPYDYWGQGTQVTVSS
- polyreactivity (PSR sort gate): high polyreactivity

Sequence: QVQLVESGGGLVQAGGSLRLSCAASGSILGPYAMGWYRQAPGKERELVAGISGSGTRTYYADSVKGRFTISRDNAKNTVYLQMNSLKPEDPAVYYCAARYYSSWIRYPTYDYWGQGTQVTVSS
- polyreactivity (PSR sort gate): high polyreactivity

Sequence: QVQLVESGGGLVQAGGSLRLSCAASGSILGRYAMGGYRQAPGKERELVASITRRAGTTYYADSVKGRFTISRDNAKNTVYLQKNSLKPEATAVYYCAARAYTNYYYWGQGTQVTVSS
- polyreactivity (PSR sort gate): high polyreactivity

Sequence: QVQLVESGGGLVQAGGSLRLSCAASGSILGSNAMGWYRQAPGKERELVAAITSSGGSTYYADSVKGRFTISRDNAKNTVYLQMNSLKPEDTAVYYCAARTNYDSTRGEYDYWGQGTQVTVSS
- polyreactivity (PSR sort gate): low polyreactivity

Sequence: QVQLVESGGGLVQAGGSLRLSCAASGSILGSYAMGWYRQAPGKERELVAAINYSGGSTYYADSVKGRFTISRDNAKNTVYLQMNSLKPEETAVYYCAAVATAGYSNYKLDYWGQGTQVTVSS
- polyreactivity (PSR sort gate): low polyreactivity

Sequence: QVQLVESGGGLVQAGGSLRLSCAASGSILGVYAMGWYRQAPGKERELVAAISSGGRTYYADSVKGRFTISRDNAKNTVYLQMNSLKPEDTAVYYCNAVSGSFLKYSRYYWGQGTQVTVSS
- polyreactivity (PSR sort gate): high polyreactivity

Sequence: QVQLVESGGGLVQAGGSLRLSCAASGSILIGNAMGWYRQAPGKERELVAGISSDVSTNYADSVKGRFTISRDNAKNTVYLQMNSLNPEDTAVYYCNKDAGPFQEHLYSWGYDSWGQGTQVTVSS
- polyreactivity (PSR sort gate): low polyreactivity

Sequence: QVQLVESGGGLVQAGGSLRLSCAASGSILIVYAMGWYRQAPGKERELVAAITRGGRTNYADSVKGRFTISRDNAKNTVYLQMNSLKPEDTAVYYCAARVLPANVKPYNYWGQGTQVTVSS
- polyreactivity (PSR sort gate): high polyreactivity

Sequence: QVQLVESGGGLVQAGGSLRLSCAASGSILKRYAMGWYRQAPGKERELVAAITRRGGSTYYADSVKGRFTISRDNAKNTVYLQMNSLKPEDTAVYYCNAYTYSATVPIFTNYGYWGQGTQVTVSS
- polyreactivity (PSR sort gate): high polyreactivity

Sequence: QVQLVESGGGLVQAGGSLRLSCAASGSILLDYAMGWYRQAPGKERELVAVISRRGTSTYYADSVKGRFTISRDNAKNTVYLQMNSLKPEDTAVYYCATSTWSFYRRYDYWGQGTQVTVSS
- polyreactivity (PSR sort gate): high polyreactivity

Sequence: QVQLVESGGGLVQAGGSLRLSCAASGSILLTNAMGWYRQAPGKERELVAAITSSGGSTSYADSVKGRFTISRDNAKNTVYIQMNSLKPEDTAVYYCAAAQRYRSQQFDHWGQGTQVTVSS
- polyreactivity (PSR sort gate): low polyreactivity

Sequence: QVQLVESGGGLVQAGGSLRLSCAASGSILLWNTMGWYRQAPGKERELVADIRLSASSTYYSDSVKGRITISRDNAKNTVYLQMNSLKPEDTAVSYSAADEYTPDYGQGYDYWGQGTQVTVSS
- polyreactivity (PSR sort gate): low polyreactivity

Sequence: QVQLVESGGGLVQAGGSLRLSCAASGSILNDYAMGWYRQAPGKERELVAGISRGGGTYYADSVKGRFTISRDNAKNTVYLQMNSLKPEDTAVYYCAKRIYWYHYRYDYWGQGTQVTVSS
- polyreactivity (PSR sort gate): high polyreactivity

Sequence: QVQLVESGGGLVQAGGSLRLSCAASGSILPRYVMGSYRQAPAKETELVAAISQSGGSTYYADTVKARFTISRDNAKNTVYLQMNRLKPEDTAVYYCAAEVRGWRVDYYYWGQGTQVTVSS
- polyreactivity (PSR sort gate): high polyreactivity

Sequence: QVQLVESGGGLVQAGGSLRLSCAASGSILPYYAMGWYRQAPGKERELVAAISVSGGGTYYADSVKGRFTISRDNAKNTVYLQMNSLKPEDTAVYYCARNVNAQKVLGGFDSWGQGTQVTVSS
- polyreactivity (PSR sort gate): low polyreactivity

Sequence: QVQLVESGGGLVQAGGSLRLSCAASGSILQTNVMGWYIQAPGKEREFVAAIRWSTVSTYYADSVKGRFTISRDNAKNTVYLQMNSLKPEDTAVYYCASAKSWYSYKMDYWGQGTQVTVSS
- polyreactivity (PSR sort gate): low polyreactivity

Sequence: QVQLVESGGGLVQAGGSLRLSCAASGSILRRNTMGCYRQAPGKERELVAAINKTGGSTYYADSVKGRFTISRDNAKNTVYLQMNSLKPEDTAVYYCNRDKYYGTKYDYWGQGTQVTVSS
- polyreactivity (PSR sort gate): low polyreactivity

Reference: the nanobody polyreactivity screen of Harvey et al. (2022)
